US20240209062A1 (INVETX, published 2024)
Numbering of substitutions follows the chain as printed. In names and notes the source's numbering stands.

B1: IgG with feline IgG1a Fc variant S252Y, R301V (antibody)
heavy: DVQLVESGGDLVKPGGSLRLTCVASGLSLTSDSMSWVRQAPGKGLQWVSTLWSNRGTYYTDSVKGRFTISKDNAENTLYLQMNNLKTEDTATYYCASIYYYEADYLHWYFDFWGQGALVTVSSASTTAPSVFPLAPSCGTTSGATVALACLVLGYFPEPVTVSWNSGALTSGVHTFPAVLQASGLYSLSSMVTVPSSRWLSDTFTCNVAHPPSNTKVDKTVRKTDHPPGPKPCDCPKCPPPEAAGGPSIFIFPPKPKDTLYISRTPEVTCLVVDLGPDDSDVQITWFVDNTQVYTAKTSPREEQFNSTYVVVSVLPILHQDWLKGKEFKCKVNSKSLPSPIERTISKAKGQPHEPQVYVLPPAQEELSRNKVSVTCLIKSFHPPDIAVEWEITGQPEPENNYRTTPPQLDSDGTYFVYSKLSVDRSHWQRGNTYTCSVSHEALHSHHTQKSLTQSPG
light: EIQMTQSPTSLSASVGDRVTITCRASEGIANNLSWYQQTPGKAPKLLIYATSNLHSGVPSRFSGSGSGTDFTLTISSLQPEDFATYYCQQGFKWPLTFGGGTKLEITRSDAQPSVFLFQPSLDELHTGSASIVCILNDFYPKEVNVKWKVDGVVQNKGIQESTTEQNSKDSTYSLSSTLTMSSTEYQSHEKFSCEVTHKSLASTLVKSFNRSECQRE
notes: IgG1a constant domain with MALA mutations (M234A, L244A as printed); variable domains from WO 2023/97275
B2: IgG with feline IgG1a Fc variant S428L, I377L (antibody)
heavy: B1 heavy with Y261S, V310R, I386L, S439L
light: B1 light
notes: Printed '1377L' read as I377L; IgG1a constant domain with MALA mutations (M234A, L244A as printed); variable domains from WO 2023/97275; also called S428L, 1377L
B3: IgG with feline IgG1a Fc variant S428L, L309D (antibody)
heavy: B1 heavy with Y261S, V310R, L318D, S439L
light: B1 light
notes: as for B1
B4: IgG with feline IgG1a Fc variant S428M, R301L (antibody)
heavy: B1 heavy with Y261S, V310L, S439M
light: B1 light
notes: as for B1
B5: IgG with feline IgG1a Fc variant S428M, I377Y (antibody)
heavy: B1 heavy with Y261S, V310R, I386Y, S439M
light: B1 light
notes: Printed '1377Y' read as I377Y; IgG1a constant domain with MALA mutations (M234A, L244A as printed); variable domains from WO 2023/97275; also called S428M, 1377Y
B6: IgG with feline IgG1a Fc variant S428L, R392D (antibody)
heavy: B1 heavy with Y261S, V310R, R403D, S439L
light: B1 light
notes: as for B1
B7: IgG with feline IgG1a Fc variant S428M, I377L (antibody)
heavy: B1 heavy with Y261S, V310R, I386L, S439M
light: B1 light
notes: Printed '1377L' read as I377L; IgG1a constant domain with MALA mutations (M234A, L244A as printed); variable domains from WO 2023/97275; also called S428M, 1377L
B8: IgG with feline IgG1a Fc variant S428L, R301V (antibody)
heavy: B1 heavy with Y261S, S439L
light: B1 light
notes: as for B1
B9: IgG with feline IgG1a Fc variant S428L, R301Y (antibody)
heavy: B1 heavy with Y261S, V310Y, S439L
light: B1 light
notes: as for B1
B10: IgG with feline IgG1a Fc variant S428L, R392E (antibody)
heavy: B1 heavy with Y261S, V310R, R403E, S439L
light: B1 light
notes: as for B1
B11: IgG with feline IgG1a Fc variant S428M, Q311V (antibody)
heavy: B1 heavy with Y261S, V310R, Q320V, S439M
light: B1 light
notes: as for B1
B12: IgG with feline IgG1a Fc variant S428M, L309E (antibody)
heavy: B1 heavy with Y261S, V310R, L318E, S439M
light: B1 light
notes: as for B1
B13: IgG with feline IgG1a Fc variant S252Y, R392E (antibody)
heavy: B1 heavy with V310R, R403E
light: B1 light
notes: as for B1
B14: IgG with feline IgG1a Fc variant S428M (antibody)
heavy: B1 heavy with Y261S, V310R, S439M
light: B1 light
notes: as for B1
B15: IgG with feline IgG1a Fc variant S428L, I377Y (antibody)
heavy: B1 heavy with Y261S, V310R, I386Y, S439L
light: B1 light
notes: Printed '1377Y' read as I377Y; IgG1a constant domain with MALA mutations (M234A, L244A as printed); variable domains from WO 2023/97275; also called S428L, 1377Y
B16: IgG with feline IgG1a Fc variant S428L, R301L (antibody)
heavy: B1 heavy with Y261S, V310L, S439L
light: B1 light
notes: as for B1
B17: IgG with feline IgG1a Fc variant S428M, L309D (antibody)
heavy: B1 heavy with Y261S, V310R, L318D, S439M
light: B1 light
notes: as for B1
B18: IgG with feline IgG1a Fc variant S428L, T286D (antibody)
heavy: B1 heavy with Y261S, T295D, V310R, S439L
light: B1 light
notes: as for B1
B19: IgG with feline IgG1a Fc variant S428M, L309V (antibody)
heavy: B1 heavy with Y261S, V310R, L318V, S439M
light: B1 light
notes: as for B1
B20: IgG with feline IgG1a Fc variant S428L (antibody)
heavy: B1 heavy with Y261S, V310R, S439L
light: B1 light
notes: as for B1
B21: IgG with feline IgG1a Fc variant S252Y, T286E (antibody)
heavy: B1 heavy with T295E, V310R
light: B1 light
notes: as for B1
B22: IgG with feline IgG1a Fc variant S252Y, T286D (antibody)
heavy: B1 heavy with T295D, V310R
light: B1 light
notes: as for B1
B23: IgG with feline IgG1a Fc variant S428M, R301V (antibody)
heavy: B1 heavy with Y261S, S439M
light: B1 light
notes: as for B1
B24: IgG with feline IgG1a Fc variant S252Y, R392D (antibody)
heavy: B1 heavy with V310R, R403D
light: B1 light
notes: as for B1
B25: IgG with feline IgG1a Fc variant S252Y, R301Y (antibody)
heavy: B1 heavy with V310Y
light: B1 light
notes: as for B1

These binders were tested against T1, feline FcRn (soluble portion of large subunit p51 isoform X1 with C-terminal 6xHis-tag, co-expressed with … (feline, UniProt Q5MGS7 21-118)) (assay: SPR, Biacore T200, IgG captured on Protein L chip, feline FcRn flowed over, pH 5.9, 1:1 fit).
T1 construct: Heterodimer made by co-expression in CHO cells, purified on HisTrap FF; also called FcRn complex
Experimental: The feline FcRn binding experiments at pH 5.9 were completed on a BIACORE™ T200 instrument. A Series S Protein L Sensor chip (Cytiva, Cat. No. BR29205137) was used to capture the antibody variants via the kappa (κ) light chain. The feline variants were captured onto the protein L chip at a flow rate of 10 μL/min for 60 seconds. 1×PBX-P+(Cytiva Cat 28995084) was adjusted to pH 5.9 for the running buffer. The feline FcRn was flowed over the sensor chip at 30 μL/min for 120 seconds contact time and 600 seconds dissociation time. Regeneration of the flow cells was completed by flowing over 10 mM glycine, pH 1.7 at 30 μL/min for 30 seconds. The data were evaluated by the BIACORE™T200 Evaluation software v3.2.1 by fitting to a 1:1 kinetic interaction model.

T1 sequence (chain, as listed by the source limits assumed, chain 1 of 2): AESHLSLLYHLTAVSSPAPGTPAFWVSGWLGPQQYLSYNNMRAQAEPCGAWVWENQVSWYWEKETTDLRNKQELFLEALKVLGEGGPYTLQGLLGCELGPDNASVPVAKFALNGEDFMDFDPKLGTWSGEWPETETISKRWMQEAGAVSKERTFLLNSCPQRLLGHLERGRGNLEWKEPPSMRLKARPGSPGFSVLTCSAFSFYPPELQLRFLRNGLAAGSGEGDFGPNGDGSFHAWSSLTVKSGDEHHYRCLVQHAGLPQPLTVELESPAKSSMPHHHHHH
T1 sequence (Q5MGS7 other isoform, or with tags, fused parts or gaps limits assumed, chain 2 of 2): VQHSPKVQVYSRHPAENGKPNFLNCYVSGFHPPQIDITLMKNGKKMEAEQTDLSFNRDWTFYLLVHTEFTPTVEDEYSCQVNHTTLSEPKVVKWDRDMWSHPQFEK

Kd [nM]	koff [s⁻¹]	kon [M⁻¹ s⁻¹]	Binder
38.7	0.028	724000	B1
87.7	0.0723	819000	B2
200	0.12	597000	B3
103	0.0835	809000	B4
70.8	0.0636	900000	B5
104	0.0934	904000	B6
76.2	0.0751	981000	B7
109	0.0832	763000	B8
99.1	0.0706	712000	B9
96.5	0.0772	801000	B10
28.4	0.0319	1.12e+06	B11
45.6	0.0413	905000	B12
24.1	0.0287	1.19e+06	B13
70.1	0.0702	1.01e+06	B14
107	0.117	1.09e+06	B15
115	0.116	1.01e+06	B16
177	0.104	592000	B17
33.4	0.0333	1e+06	B18
31.3	0.0358	1.15e+06	B19
64	0.0619	968000	B20
12.1	0.00783	650000	B21
15.2	0.00955	631000	B22
98.5	0.0801	812000	B23
25	0.0296	1.19e+06	B24
37.6	0.0262	696000	B25
